The source of these data is patent US20180072783A1 (published 2018).

The target of the assay is T1, Ang2 (UniProt O15123 19-496).
T1 chain: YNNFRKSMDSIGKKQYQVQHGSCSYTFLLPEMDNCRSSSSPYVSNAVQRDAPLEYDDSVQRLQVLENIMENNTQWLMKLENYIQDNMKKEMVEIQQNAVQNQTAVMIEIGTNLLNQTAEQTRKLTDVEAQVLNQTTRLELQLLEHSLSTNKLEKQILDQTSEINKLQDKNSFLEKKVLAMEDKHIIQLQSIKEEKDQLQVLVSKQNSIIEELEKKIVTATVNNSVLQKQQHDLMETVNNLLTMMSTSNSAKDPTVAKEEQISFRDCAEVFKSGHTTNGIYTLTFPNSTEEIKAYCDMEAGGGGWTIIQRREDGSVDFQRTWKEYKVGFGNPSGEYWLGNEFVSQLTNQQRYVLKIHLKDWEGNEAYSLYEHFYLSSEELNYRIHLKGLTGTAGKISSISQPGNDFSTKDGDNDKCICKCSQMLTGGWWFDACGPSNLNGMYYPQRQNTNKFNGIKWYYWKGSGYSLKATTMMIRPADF
The experiment in a line: direct binding ELISA; MBP fusion. A general note: In an ELISA, binding on a coated surface is turned into a signal by an enzyme label.

One may read the EC50 as the concentration needed to bring the measured effect to its halfway point. The low end stands for a more potent agent, the high end for a less potent agent. As to AQTNFMPMDNDEGLLYEQFI [L1-7D MDD (ZC12)], the EC50 worked out at 0.153 nM.

AQTNFMPMDNDEGLLYEEFI [L1-7D MVD (2A1)]: the EC50 is over 100 nM. For AQTNFMPMDNDEALLYEEFI [L1-7D MHD (3C3)], it took 17 nM to reach a half-maximal effect (EC50).

With KSLSLSPGGNGTTNFMPMDQDEALLYEEFI [L1-7D MSD (7B2)], the EC50 is 1.38 nM. In turn, AQTNFMPMDQDELLLYEQFI [L1-7D MND (4H4)] showed a half-maximal effective concentration (EC50) of 0.411 nM. To AQTNFMPMDQDEALLYEEFIC [L1-7D MAD (6A3)] belongs over 100 nM; to AQTNFMPMDDDELLLYEQFIL [L1-7D MKD (5A8)], over 100 nM; to AQTNFMPMDNDEALLYEQFI [L1-7D MQD (1A12)], over 100 nM.
